# Laboratory results from patent US9376706B2, “Protease detection” (Mologic Limited, priority 2007, dated 2016).
# Square brackets hold non-standard residues; d marks the D form. Ends that are not written are not given here. ANA = 2-amino naphthoic acid; 4Abz = Nc1ccc(C(=O)O)cc1
# Columns and labels:
# Assay type in all cases: biochemical
# papain = target: T1, papain (Carica papaya, UniProt P00784); assay: Booklet assay for detection of papain with DMAC visualisation
# T1 sequence (P00784 134-345): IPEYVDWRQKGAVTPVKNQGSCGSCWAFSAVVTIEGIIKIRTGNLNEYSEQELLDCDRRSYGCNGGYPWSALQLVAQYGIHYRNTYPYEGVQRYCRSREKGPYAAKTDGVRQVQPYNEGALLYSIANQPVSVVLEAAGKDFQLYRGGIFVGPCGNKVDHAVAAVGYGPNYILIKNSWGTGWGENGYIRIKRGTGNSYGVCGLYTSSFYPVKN
# Description: The polypeptides of the present invention are, in some embodiments, incorporated into a product for detecting a protease enzyme in a sample which takes the form of a booklet. A suitable such booklet is disclosed in PCT application No. PCT/GB2007/000643 which is incorporated herein by reference. Referring to FIG. 3 a booklet 1 in accordance with this embodiment will now be described. The booklet comprises first and second sheets 2, 3 of planar substrate such as cardboard, connected by a hinge 4. In the centre of the first sheet there is provided a thin reaction film 25 on top of an absorbent pad 5. The reaction film 25 is impregnated with the chromogenic polypeptide and can be made from PVA. On the centre of the second sheet 3 there is provided an aperture 6 which is aligned with the reaction film 25 and the absorbent pad 5. The aperture 6 is covered by a visualisation film 7, such that the visualisation film 7 lies between the aperture 6 and the reaction film 25 when the first and second sheets 2, 3 are pressed against each other. The visualisation film 7 is impregnated with DMAC and HCl. Optionally, the reaction film 25 and the absorbent pad 5 are covered with a removable film (not shown) prior to use so that the reaction film 25 and the absorbent pad 5 are kept sealed from the environment. […]
# Neutrophil Elastase [1] = target: T2, Neutrophil Elastase (Homo sapiens, UniProt P08246); assay: Plate assay of peptides as elastase substrates with DMAC visualisation; conditions: for result for elastase activity (well colour): 37° C., 30 minutes, pH 7.4; for suitability as elastase substrate: conclusion of Examples 3A and 3B
# T2 sequence (P08246 30-267): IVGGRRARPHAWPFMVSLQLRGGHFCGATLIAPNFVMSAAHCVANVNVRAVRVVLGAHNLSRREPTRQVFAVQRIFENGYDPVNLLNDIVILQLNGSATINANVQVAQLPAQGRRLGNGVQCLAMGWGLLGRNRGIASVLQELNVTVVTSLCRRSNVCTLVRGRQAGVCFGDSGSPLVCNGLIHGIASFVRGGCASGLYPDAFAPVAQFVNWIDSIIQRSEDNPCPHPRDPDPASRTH
# Method: Two peptides, AAPV-[pABA]-GGC (SEQ ID NO: 3) and AAPV-[ANA]-GGC (SEQ ID NO: 4), were synthesised, wherein pABA is para-amino benzoic acid and ANA is 2-amino naphthoic acid. Both peptides were tested for their suitability as a substrate for the Neutrophil Elastase enzyme. The electrospray mass spectrums of AAPV-[pABA]-GGC (SEQ ID NO: 3) and AAPV-[ANA]-GGC (SEQ ID NO: 4) are shown in FIGS. 10A and 10B respectively.
# Varying concentrations of Elastase (5 μl of 18, 9, 6 and 3 units/ml dilutions) were added to 0.5 mg/ml peptide (5 μl) in separate plate wells. The mixtures were diluted with 20 μl of Buffer (50 mM phosphate, 5 mM EDTA; pH 7.4) and incubated at 37° C. for 30 minutes. 15 μl of working DMAC solution (0.3 mg/ml DMAC, 50 mM HCl) was added to each plate well and mixed thoroughly to visualize.
# Neutrophil Elastase [2] = target: T2, Neutrophil Elastase; assay: Vertical flow column assay, peptide conjugated to frits, elastase, DMAC development; conditions: column with elastase, flow contact time approx. 30 seconds
# Method: Another assay format was used to test for the activity of the enzyme Neutrophil Elastase in the presence of the two peptides, AAPV-[pABA]-GGC (SEQ ID NO: 3) and AAPV-[ANA]-GGC (SEQ ID NO: 4). The C-terminal cysteine group of the peptides was used as a means of conjugation to a solid surface. Sintered polyethylene frits functionalised with iodoacetyl groups were rinsed in 50 mM sodium phosphate, 5 mM EDTA, pH 7.4 for 10 minutes. The frits were then transferred to a solution of 0.5 mg/ml peptide (in PBS) for sensitisation for 30 minutes. The frits were then rinsed once more in phosphate EDTA buffer for 10 minutes. The frits were loaded into empty columns and 200 μl of elastase was added with an approximate flow contact time of 30 seconds. To develop the assay, 100 μl of working DMAC solution (0.3 mg/ml DMAC, 50 mM HCl) was passed through the column.
result for elastase activity (well colour) (Neutrophil Elastase [1]; all wells with elastase),result of vertical flow assay (column colour) (Neutrophil Elastase [2]),result for elastase activity (well colour) (Neutrophil Elastase [1]; final elastase 0.5 units/ml),"result for elastase activity (well colour) (Neutrophil Elastase [1]; final elastase 3, 1.5 or 1 units/ml)",Substance,"colour change of DMAC in booklet assay (papain; papain sample, 5 min on first sheet, read ten minutes after folding onto DMAC sheet)","rate of colour change compared with BANA (papain; papain, identical conditions, FIG. 7C)",suitability as elastase substrate (Neutrophil Elastase [1])
,,,,Val-Arg-[pABA]-Gly (VR[4Abz]G-OH; N-terminus assumed; SMILES CC(C)[C@H](N)C(=O)N[C@@H](CCCNC(=N)N)C(=O)Nc1ccc(C(=O)NCC(=O)O)cc1) [chromogenic polypeptide; pABA is para-amino benzoic acid],changed from yellow to red,faster detectable colour change than BANA,
elastase activity was not detected,negative results,,,"AAPV-[ANA]-GGC (AAPV[ANA]GGC) [chromogenic peptide, ANA is 2-amino naphthoic acid]",,,poor elastase substrate
,positive result,weak positive result,positive result,"AAPV-[pABA]-GGC (AAPV[4Abz]GGC) [chromogenic peptide, pABA is para-amino benzoic acid]",,,significantly more suitable as a substrate for elastase
